These results are taken from paper PMC11574045, “A cofactor-induced repressive type of transcription factor condensation can be induced by synthetic peptides to suppress tumorigenesis” (The EMBO Journal, 2024).

For the assay, the system named is HEK293FT cells transfected with TF library. Put plainly: Screening of TF condensates based on fluorescent puncta. It counts as cell-based. The conditions noted are these: Figure 1B numerical data; TF library screen, one value per transcriptional factor. A digest of the protocol: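 Each TF construct was introduced into HEK293FT cells using PEI at 4.8 μg/ml; glucose deprivation versus normal medium lasted 12 h. Automated confocal-style imaging of tagged TF staining, 50 fields per well, gave the puncta data.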

B1: ARID4A (protein, UniProt P29374 1-1257, looked up)
AT-rich interactive …: MKAADEPAYLTVGTDVSAKYRGAFCEAKIKTVKRLVKVKVLLKQDNTTQLVQDDQVKGPLRVGAIVETRTSDGSFQEAIISKLTDASWYTVVFDDGDERTLRRTSLCLKGERHFAESETLDQLPLTNPEHFGTPVIAKKTNRGRRSSLPVTEDEKEEESSEEEDEDKRRLNDELLGKVVSVVSATERTEWYPALVISPSCNDDITVKKDQCLVRSFIDSKFYSIARKDIKEVDILNLPESELSTKPGLQKASIFLKTRVVPDNWKMDISEILESSSSDDEDGPAEENDEEKEKEAKKTEEEVPEEELDPEERDNFLQQLYKFMEDRGTPINKPPVLGYKDLNLFKLFRLVYHQGGCDNIDSGAVWKQIYMDLGIPILNSAASYNVKTAYRKYLYGFEEYCRSANIQFRTVHHHEPKVKEEKKDLEESMEEALKLDQEMPLTEVKSEPEENIDSNSESEREEIELKSPRGRRRIARDVNSIKKEIEEEKTEDKLKDNDTENKDVDDDYETAEKKENELLLGRKNTPKQKEKKIKKQEDSDKDSDEEEEKSQEREETESKCDSEGEEDEEDMEPCLTGTKVKVKYGRGKTQKIYEASIKSTEIDDGEVLYLVHYYGWNVRYDEWVKADRIIWPLDKGGPKKKQKKKAKNKEDSEKDEKRDEERQKSKRGRPPLKSTLSSNMPYGLSKTANSEGKSDSCSSDSETEDALEKNLINEELSLKDELEKNENLNDDKLDEENPKISAHILKENDRTQMQPLETLKLEVGENEQIVQIFGNKMEKTEEVKKEAEKSPKGKGRRSKTKDLSLEIIKISSFGQNEAGSEPHIEAHSLELSSLDNKNFSSATEDEIDQCVKEKKLKRKILGQSSPEKKIRIENGMEMTNTVSQERTSDCIGSEGMKNLNFEQHFERENEGMPSLIAESNQCIQQLTSERFDSPAEETVNIPLKEDEDAMPLIGPETLVCHEVDLDDLDEKDKTSIEDVAVESSESNSLVSIPPALPPVVQHNFSVASPLTLSQDESRSVKSESDITIEVDSIAEESQEGLCERESANGFETNVASGTCSIIVQERESREKGQKRPSDGNSGLMAKKQKRTPKRTSAAAKNEKNGTGQSSDSEDLPVLDNSSKCTPVKHLNVSKPQKLARSPARISPHIKDGEKDKHREKHPNSSPRTYKWSFQLNELDNMNSTERISFLQEKLQEIRKYYMSLKSEVATIDRRRKRLKKKDREVSHAGASMSSASSDTGMSPSSSSPPQNVLAVECR
On to B1, for which the “Z score of condensed fraction” value came to 0.8979.

B2: ARL2BP (protein, UniProt Q9Y2Y0 1-163, looked up)
ADP-ribosylation factor-like …: MDALEGESFALSFSSASDAEFDAVVGYLEDIIMDDEFQLLQRNFMDKYYLEFEDTEENKLIYTPIFNEYISLVEKYIEEQLLQRIPEFNMAAFTTTLQHHKDEVAGDIFDMLLTFTDFLAFKEMFLDYRAEKEGRGLDLSSGLVVTSLCKSSSLPASQNNLRH
As to B2, the “Z score of condensed fraction” value was 1.651.

B3: HOXC13 (protein, UniProt P31276 1-330, looked up)
Homeobox protein Hox-C13: MTTSLLLHPRWPESLMYVYEDSAAESGIGGGGGGGGGGTGGAGGGCSGASPGKAPSMDGLGSSCPASHCRDLLPHPVLGRPPAPLGAPQGAVYTDIPAPEAARQCAPPPAPPTSSSATLGYGYPFGGSYYGCRLSHNVNLQQKPCAYHPGDKYPEPSGALPGDDLSSRAKEFAFYPSFASSYQAMPGYLDVSVVPGISGHPEPRHDALIPVEGYQHWALSNGWDSQVYCSKEQSQSAHLWKSPFPDVVPLQPEVSSYRRGRKKRVPYTKVQLKELEKEYAASKFITKEKRRRISATTNLSERQVTIWFQNRRVKEKKVVSKSKAPHLHST
Regarding B3, the “Z score of condensed fraction” value is -0.9976.

B4: ARID5B (protein, UniProt Q14865 1-1188, looked up)
AT-rich interactive …: MEPNSLQWVGSPCGLHGPYIFYKAFQFHLEGKPRILSLGDFFFVRCTPKDPICIAELQLLWEERTSRQLLSSSKLYFLPEDTPQGRNSDHGEDEVIAVSEKVIVKLEDLVKWVHSDFSKWRCGFHAGPVKTEALGRNGQKEALLKYRQSTLNSGLNFKDVLKEKADLGEDEEETNVIVLSYPQYCRYRSMLKRIQDKPSSILTDQFALALGGIAVVSRNPQILYCRDTFDHPTLIENESICDEFAPNLKGRPRKKKPCPQRRDSFSGVKDSNNNSDGKAVAKVKCEARSALTKPKNNHNCKKVSNEEKPKVAIGEECRADEQAFLVALYKYMKERKTPIERIPYLGFKQINLWTMFQAAQKLGGYETITARRQWKHIYDELGGNPGSTSAATCTRRHYERLILPYERFIKGEEDKPLPPIKPRKQENSSQENENKTKVSGTKRIKHEIPKSKKEKENAPKPQDAAEVSSEQEKEQETLISQKSIPEPLPAADMKKKIEGYQEFSAKPLASRVDPEKDNETDQGSNSEKVAEEAGEKGPTPPLPSAPLAPEKDSALVPGASKQPLTSPSALVDSKQESKLCCFTESPESEPQEASFPSFPTTQPPLANQNETEDDKLPAMADYIANCTVKVDQLGSDDIHNALKQTPKVLVVQSFDMFKDKDLTGPMNENHGLNYTPLLYSRGNPGIMSPLAKKKLLSQVSGASLSSSYPYGSPPPLISKKKLIARDDLCSSLSQTHHGQSTDHMAVSRPSVIQHVQSFRSKPSEERKTINDIFKHEKLSRSDPHRCSFSKHHLNPLADSYVLKQEIQEGKDKLLEKRALPHSHMPSFLADFYSSPHLHSLYRHTEHHLHNEQTSKYPSRDMYRESENSSFPSHRHQEKLHVNYLTSLHLQDKKSAAAEAPTDDQPTDLSLPKNPHKPTGKVLGLAHSTTGPQESKGISQFQVLGSQSRDCHPKACRVSPMTMSGPKKYPESLSRSGKPHHVRLENFRKMEGMVHPILHRKMSPQNIGAARPIKRSLEDLDLVIAGKKARAVSPLDPSKEVSGKEKASEQESEGSKAAHGGHSGGGSEGHKLPLSSPIFPGLYSGSLCNSGLNSRLPAGYSHSLQYLKNQTVLSPLMQPLAFHSLVMQRGIFTSPTNSQQLYRHLAAATPVGSSYGDLLHNSIYPLAAINPQAAFPSSQLSSVHPSTKL
Take B4: the “Z score of condensed fraction” value is listed as -1.099.

B5: HSF1 (protein, UniProt Q00613 1-529, looked up)
Heat shock factor protein 1: MDLPVGPGAAGPSNVPAFLTKLWTLVSDPDTDALICWSPSGNSFHVFDQGQFAKEVLPKYFKHNNMASFVRQLNMYGFRKVVHIEQGGLVKPERDDTEFQHPCFLRGQEQLLENIKRKVTSVSTLKSEDIKIRQDSVTKLLTDVQLMKGKQECMDSKLLAMKHENEALWREVASLRQKHAQQQKVVNKLIQFLISLVQSNRILGVKRKIPLMLNDSGSAHSMPKYSRQFSLEHVHGSGPYSAPSPAYSSSSLYAPDAVASSGPIISDITELAPASPMASPGGSIDERPLSSSPLVRVKEEPPSPPQSPRVEEASPGRPSSVDTLLSPTALIDSILRESEPAPASVTALTDARGHTDTEGRPPSPPPTSTPEKCLSVACLDKNELSDHLDAMDSNLDNLQTMLSSHGFSVDTSALLDLFSPSVTVPDMSLPDLDSSLASIQELLSPQEPPRPPEAENSSPDSGKQLVHYTAQPLFLLDPGSVDTGSNDLPVLFELGEGSYFSEGDGFAEDPTISLLTGSEPPKAKDPTVS
B5: the “Z score of condensed fraction” value is reported as -1.041.

B6: HSFX1 (protein, UniProt Q9UBD0 1-423, looked up)
Heat shock transcription …: MEDKRSLSMARCEERNSRGQDHGLERVPFPPQLQSETYLHPADPSPAWDDPGSTGSPNLRLLTEEIAFQPLAEEASFRRPHPDGDVPPQGEDNLLSLPFPQKLWRLVSSNQFSSIWWDDSGACRVINQKLFEKEILKRDVAHKVFATTSIKSFFRQLNLYGFRKRRQCTFRTFTRIFSAKRLVSILNKLEFYCHPYFQRDSPHLLVRMKRRVGVKSAPRHQEEDKPEAAGSCLAPADTEQQDHTSPNENDQVTPQHREPAGPNTQIRSGSAPPATPVMVPDSAVASDNSPVTQPAGEWSEGSQAHVTPVAAVPGPAALPFLYVPGSPTQMNSYGPVVALPTASRSTLAMDTTGLPAPGMLPFCHLWVPVTLVAAGAAQPAASMVMFPHLPALHHHCPHSHRTSQYMPASDGPQAYPDYADQST
On to B6, for which the “Z score of condensed fraction” value was -0.6149.

B7: IDB3 (protein, UniProt Q02535 1-119, looked up)
DNA-binding protein inhibitor …: MKALSPVRGCYEAVCCLSERSLAIARGRGKGPAAEEPLSLLDDMNHCYSRLRELVPGVPRGTQLSQVEILQRVIDYILDLQVVLAEPAPGPPDGPHLPIQTAELTPELVISNDKRSFCH
On to B7, for which the “Z score of condensed fraction” value is on record as -0.588.

B8: HSBP1 (protein, UniProt O75506 1-76, looked up)
Heat shock factor-binding …: MAETDPKTVQDLTSVVQTLLQQMQDKFQTMSDQIIGRIDDMSSRIDDLEKNIADLMTQAGVEELESENKIPATQKS
Regarding B8, the “Z score of condensed fraction” value is reported as -0.06777.

B9: ID4 (protein, UniProt P47928 1-161, looked up)
DNA-binding protein inhibitor …: MKAVSPVRPSGRKAPSGCGGGELALRCLAEHGHSLGGSAAAAAAAAAARCKAAEAAADEPALCLQCDMNDCYSRLRRLVPTIPPNKKVSKVEILQHVIDYILDLQLALETHPALLRQPPPPAPPHHPAGTCPAAPPRTPLTALNTDPAGAVNKQGDSILCR
For the molecule B9, the “Z score of condensed fraction” value is recorded as -0.9102.

B10: IFI16 (protein, UniProt Q16666 1-785, looked up)
Gamma-interferon-inducible …: MGKKYKNIVLLKGLEVINDYHFRMVKSLLSNDLKLNLKMREEYDKIQIADLMEEKFRGDAGLGKLIKIFEDIPTLEDLAETLKKEKLKVKGPALSRKRKKEVDATSPAPSTSSTVKTEGAEATPGAQKRKKSTKEKAGPKGSKVSEEQTQPPSPAGAGMSTAMGRSPSPKTSLSAPPNSSSTENPKTVAKCQVTPRRNVLQKRPVIVKVLSTTKPFEYETPEMEKKIMFHATVATQTQFFHVKVLNTSLKEKFNGKKIIIISDYLEYDSLLEVNEESTVSEAGPNQTFEVPNKIINRAKETLKIDILHKQASGNIVYGVFMLHKKTVNQKTTIYEIQDDRGKMDVVGTGQCHNIPCEEGDKLQLFCFRLRKKNQMSKLISEMHSFIQIKKKTNPRNNDPKSMKLPQEQRQLPYPSEASTTFPESHLRTPQMPPTTPSSSFFTKKSEDTISKMNDFMRMQILKEGSHFPGPFMTSIGPAESHPHTPQMPPSTPSSSFLTTKSEDTISKMNDFMRMQILKEGSHFPGPFMTSIGPAESHPHTPQMPPSTPSSSFLTTLKPRLKTEPEEVSIEDSAQSDLKEVMVLNATESFVYEPKEQKKMFHATVATENEVFRVKVFNIDLKEKFTPKKIIAIANYVCRNGFLEVYPFTLVADVNADRNMEIPKGLIRSASVTPKINQLCSQTKGSFVNGVFEVHKKNVRGEFTYYEIQDNTGKMEVVVHGRLTTINCEEGDKLKLTCFELAPKSGNTGELRSVIHSHIKVIKTRKNKKDILNPDSSMETSPDFFF
On to B10, for which the “Z score of condensed fraction” value is on record as -0.2342.

B11: HSFY1 (protein, UniProt Q96LI6 1-401, looked up)
Heat shock transcription …: MAHVSSETQDVSPKDELTASEASTRSPLCEHTFPGDSDLRSMIEEHAFQVLSQGSLLESPSYTVCVSEPDKDDDFLSLNFPRKLWKIVESDQFKSISWDENGTCIVINEELFKKEILETKAPYRIFQTDAIKSFVRQLNLYGFSKIQQNFQRSAFLATFLSEEKESSVLSKLKFYYNPNFKRGYPQLLVRVKRRIGVKNASPISTLFNEDFNKKHFRAGANMENHNSALAAEASEESLFSASKNLNMPLTRESSVRQIIANSSVPIRSGFPPPSPSTSVGPSEQIATDQHAILNQLTTIHMHSHSTYMQARGHIVNFITTTTSQYHIISPLQNGYFGLTVEPSAVPTRYPLVSVNEAPYRNMLPAGNPWLQMPTIADRSAAPHSRLALQPSPLDKYHPNYN
Consider B11, for which the “Z score of condensed fraction” value is recorded as 0.153.
